Entries after “also recorded” stand apart in the source; their conditions may differ.
Assays:
[1] = system: transient cerebral focal ischemia (left middle cerebral artery occlusion); conditions: rat, in vivo
[2] = system: neurons in striatum and cortex of ischemic brains; assay: Haematoxylin and eosin histology of ischemic brain sections; assay type: in vivo, rat; conditions: NsPLA2 at 0 min post-occlusion
Text: The ability of NsPLA2 to protect neurons from cell death was investigated. Paraffin-embedded rat brains were sectioned and stained with haematoxylin and eosin. […] Neurons appeared shrunken and nuclei were dysmorphic and pyknotic.

[3] = system: neurons in striatum and cortex of ischemic brains; conditions: rat, in vivo
[4] = system: gene expression in ischemic brain; assay: Microarray gene expression analysis (RAE-230A GeneChips) of MCAo and MCAo+NsPLA2 brains; assay type: in vivo, rat
Text: Cerebral ischemia is a powerful stimulus for the de novo expression of many gene systems and identification of genes differentially expressed in the ischemic and non-ischemic brain can help illuminate pathophysiology and provide therapeutic targets in ischemia. Analysis of gene expression can also aid in elucidating the role of various pathways or specific genes in the mechanism of action of neuroprotective agents. Consequently, the power of high-density oligonucleotide arrays was harnessed to generate global expression profiles of non-ischemic, ischemic and NsPLA2-treated brains. RNA isolated from the brains of sham-operated rats (sham-op; n=4), rats subjected to 60 min of MCAo (MCAo; n=4) and rats subjected to 60 min of MCAo but treated with 30 μg/200 g body weight NsPLA2 immediately post-occlusion (MCAo+NsPLA2; n=4) was pooled before microarray probe preparation and hybridization to minimize inter-individual variation. Expression analysis was carried out using GeneChips from the RAE-230A Array set, with each chip representing ˜15,900 genes and expressed sequence tags (ESTs). Genes whose expression changed by 1.7-fold or greater in at least one pairwise comparison (between sham-op and MCAo or between MCAo and MCAo+NsPLA2) were deemed significant.
In an attempt to understand the mechanisms by which NsPLA2 may confer neuroprotection, the gene expression profiles of MCAo and MCAo+NsPLA2 were compared. […] They are listed in Table 1 and include genes involved in cell growth and maintenance (retinol-binding protein, regulator of G-protein signalling 2, DNA topoisomerase, X transporter protein 3, hemoglobin &chain complex, nucleosome assembly protein 1-like, cyclin-dependent kinase inhibitor 1A and chloride intracellular channel 4), development (tropomyosin 4 and neurogenic differentiation 1), lipid metabolism (tissue inhibitor of metalloproteinase 1 and sulfotransferase family 1A), Ca^2+-binding (calpactin 1 heavy chain, calgranulin A, protein disulfide isomeraserelated protein and S-100 related protein), maintenance of cytoskeletal structure (tropomyosin 1 and moesin), defense response (CD44 antigen), regulation of blood pressure (angiotensinogen), cell-cell signaling (thyrotropin releasing hormone), antioxidant activity (glutathione-S-transferase), proteolysis (MMP-9), cell adhesion (l-gicerin) and transcriptional regulation (POU domain).

[5] = system: gene expression in ischemic brain; assay: Real-time PCR quantitation of nine genes in MCAo and NsPLA2-treated brains; assay type: in vivo, rat; conditions: NsPLA2 treatment relative to MCAo brain
Text: The expression of nine genes that may have important roles in mediating the neuroprotective action of NsPLA2 was quantitated by real-time PCR (FIG. 8). Specific primers were used for PCR amplification. The relative expression of each gene in the heart was obtained after normalizing against an internal control (18S ribosomal RNA) and a calibrator, in this case, the sham-operated control or MCAo brain, FIGS. 8A and B respectively, relative gene expression=1).

TNF-a = conditions: rat, in vivo
[6] = LD50 and signs of toxicity of NsPLA2
[7] = system: Bcl-2, Bcl-XL and Bax genes; assay: Real-time PCR of anti-/pro-apoptotic genes in OGD hippocampal tissues; conditions: OGD and NsPLA2 treatment
Method: (A) Organotypic hippocampal cultures were subjected to OGD (oxygen-glucose deprivation) for 90 mins and treated with NsPLA2. […] Total RNA was isolated from the hippocampal tissues and subjected to reverse transcription and PCR. The data was derived from 6 independent PCR (n=6).
Thus, we carried out experiments using the organotypic hippocampal cultures, in conditions where oxygen is eliminated by using the 95% N2 and 5% CO2 and glucose was deprived in cultures by using culture media without glucose.

[8] = NsPLA2-treated vs saline-treated MCAo brain

B1: NsPLA2 (protein)
chain: NLYQFKNMVQCTVPNRSWWHFADYGCYCGRGGSGTPVDDLDRCCQIHDNCYNEAEKISRCWPYFKTYSYECSQGTLTCKGGNNACAAAVCDCDRLAAICFAGAPYNDNNYNIDLKARCQ
modifications: Naja sputatrix
- brain infarction compared to saline-treated control [1]: no effect
- infarct size, TTC staining of serial brain sections [1]: significant reduction in infarct size; also recorded: reduced the infarct size but to a lesser extent
- reduction of focal ischemia / infarct size (summary statement) [1]: 80%
- ischemic damage, cellular morphology (haematoxylin and eosin) [2]: significantly reduced ischemic damage
- degree of apoptosis (TUNEL) [3]: greatly reduced
- fold change, Adipose differentiation-related protein (1390383_at) [4, 8]: −1.75 fold
- fold change, CD9 antigen (1371499_at) [4, 8]: −2.6 fold
- fold change, CD44 antigen (1387952_a_at) [4, 8]: −3.7 fold
- fold change, Calcium/calmodulin-dependent protein kinase (CaM kinase) II gamma (1369993_at) [4, 8]: 1.74 fold
- fold change, Chloride intracellular channel 4 (1387420_at) [4, 8]: −1.9 fold
- fold change, DNA topoisomerase I (1369421_at) [4, 8]: −4.6 fold
- fold change, I-gicerin (1369793_a_at) [4, 8]: −1.75 fold
- fold change, NOV protein (1376734_at) [4, 8]: 1.87 fold
- fold change, ProSAPiP1 protein (1373057_at) [4, 8]: 1.74 fold
- fold change, S100 calcium-binding protein A8 (calgranulin A) (1368494_at) [4, 8]: −1.75 fold
- fold change, S-100 related protein (1386890_at) [4, 8]: −1.9 fold
- fold change, Similar to endothelial monocyte-activating polypeptide (1375170_at) [4, 8]: −1.9 fold
- fold change, Similar to plexinB1 (1374444_at) [4, 8]: 2 fold
- fold change, Similar to tropomodulin 3 (1372500_at) [4, 8]: −1.75 fold
- fold change, X transporter protein 3 (1369705_at) [4, 8]: −1.75 fold
- fold change, aldose reductase-like protein (1370902_at) [4, 8]: −2.6 fold
- fold change, angiotensinogen (1387811_at) [4, 8]: 1.87 fold
- fold change, calpactin I heavy chain (1367584_at) [4, 8]: −1.75 fold
- fold change, cyclin-dependent kinase inhibitor 1A (1387391_at) [4, 8]: −3 fold
- fold change, fibulin 2 (1389533_at) [4, 8]: −1.75 fold
- fold change, gap junction protein, beta 6 (connexin 30) (1368577_at) [4, 8]: 1.87 fold
- fold change, glutathione S-transferase, alpha 1 (1367774_at) [4, 8]: 2 fold
- fold change, hemoglobin beta chain complex (1371102_x_at) [4, 8]: −1.75 fold
- fold change, homer, neuronal immediate early gene, 1 (1370997_at) [4, 8]: −2.44 fold
- fold change, matrix metalloproteinase 9 (1369166_at) [4, 8]: −2 fold
- fold change, microtubule-associated protein, RP/EB family, member 1 (1370792_at) [4, 8]: −4.3 fold
- fold change, moesin (1368948_at) [4, 8]: −2.3 fold
- fold change, neurogenic differentiation 1 (1387288_at) [4, 8]: 1.74 fold
- fold change, nucleosome assembly protein 1-like 1 (1373473_a_at) [4, 8]: −2.3 fold
- fold change, ornithine decarboxylase antizyme inhibitor (1370575_a_at) [4, 8]: −1.9 fold
- fold change, protein disulfide isomerase related protein (calcium-binding protein) (1370007_at) [4, 8]: −2 fold
- fold change, regulator of G-protein signaling protein 2 (1368144_at) [4, 8]: −2.44 fold
- fold change, retinol binding protein 1 (1367939_at) [4, 8]: −1.75 fold
- fold change, serine (or cysteine) proteinase inhibitor, clade H, member 1 (1371310_s_at) [4, 8]: −1.9 fold
- fold change, sulfotransferase family 1A, phenol-preferring, member 1 (1370019_at) [4, 8]: 1.87 fold
- fold change, syndecan 1 (1367849_at) [4, 8]: −1.9 fold
- fold change, thyrotropin releasing hormone (1368912_at) [4, 8]: −3.5 fold
- fold change, tissue inhibitor of metalloproteinase 1 (1367712_at) [4, 8]: −2 fold
- fold change, tropomyosin 1, alpha (1370288_a_at) [4, 8]: −2.44 fold
- fold change, tropomyosin 4 (1368838_at) [4, 8]: −2.1 fold
- fold change, tumor rejection antigen gp96 (1388331_at) [4, 8]: −2.1 fold
- fold change, glutathione S-transferase, alpha 1 (1367774_at) ([4]; NsPLA2-treated vs saline-treated MCAo brain, listed as PLA2): +2.0 fold
- decrease in expression of thyrotropin releasing hormone ([4]; after PLA2 treatment): 3.5 fold
- expression of glutathione-S-transferase, CAM kinase II and angiotensinogen (real-time PCR) [5]: increased
- expression of thyrotropin releasing hormone, secreted phosphoprotein, moesin, MMP-9, TIMP-1 and calgranulin A (real-time PCR) [5]: decreased
- systemic inflammation (TNF-a): did not induce systemic inflammation
- signs of toxicity ([6]; 30 μg/200 g body weight i.v.): did not induce any signs of toxicity
- LD50 ([6]; rat, in vivo): 125 μg/200 g body weight
- Bax gene expression (real-time PCR) [7]: down-regulated
- Bcl-2 gene expression (real-time PCR) [7]: up-regulated
- Bcl-XL gene expression (real-time PCR) [7]: up-regulated

B2: tPA: tissue plasminogen activator, thrombolytic serine protease converting plasminogen to plasmin (protein, UniProt P00750 36-562, looked up)
Tissue-type plasminogen …: SYQVICRDEKTQMIYQQHQSWLRPVLRSNRVEYCWCNSGRAQCHSVPVKSCSEPRCFNGGTCQQALYFSDFVCQCPEGFAGKCCEIDTRATCYEDQGISYRGTWSTAESGAECTNWNSSALAQKPYSGRRPDAIRLGLGNHNYCRNPDRDSKPWCYVFKAGKYSSEFCSTPACSEGNSDCYFGNGSAYRGTHSLTESGASCLPWNSMILIGKVYTAQNPSAQALGLGKHNYCRNPDGDAKPWCHVLKNRRLTWEYCDVPSCSTCGLRQYSQPQFRIKGGLFADIASHPWQAAIFAKHRRSPGERFLCGGILISSCWILSAAHCFQERFPPHHLTVILGRTYRVVPGEEEQKFEVEKYIVHKEFDDDTYDNDIALLQLKSDSSRCAQESSVVRTVCLPPADLQLPDWTECELSGYGKHEALSPFYSERLKEAHVRLYPSSRCTSQHLLNRTVTDNMLCAGDTRSGGPQANLHDACQGDSGGPLVCLNDGRMTLVGIISWGLGCGQKDVPGVYTKVTNYLDWIRDNMRP
- effect on infarct volume after transient ischemia [1]: did not significantly reduce infarct volume
- neuroprotection compared with the phospholipase A2 [1]: less neuroprotective
